Laboratory results from the DeepSol protein solubility set.

Experiment: soluble on expression in E. coli; label from the status in PepcDB or PDB records

Sequence	soluble on expression in E. coli
MGSDKIHHHHHHMTAPKIIDMQALRIFLAAAKDQNMSIAASKLGLTQSAVSQAIGQLEEQFGIKLLDRNRRPLTLTSAGYVLYERGEQLVSAALNLKGAVLEAGHGVRPAIRLGLVDSVATTCGTSIIKQLMPRVAQLKLQTGLSFDVGAALIDRRVDLAITSEPMHRENGLVRYRVLTEQFVVIFSPGLEVADRENTNLALLSAQLPMIRYRSQSHLGRQAETVLRRADLEIPQFLEVDTADTLTSMVAGGLGWALTTPLCLLQAQEHAKRVGIGFLQSSGDSRSIYLLARGGKFDSLIKDTFDITVSVLKEECLARLAYIHPSLDRHAMMGEWPGIAGHSKTTGARRQPDISSEGIE	not soluble
MGSDKIHHHHHHASGGVEKINHIVVIYLENRSFDNMFGRFPGADGLEAAKGAPVQVDREGKPYTVLPPILDEKTKQPDPRFPAQIANAPFDIGPHVGQSEKHRDLVHRFYQNMEQINGGRNDKFAAWSDAGGLVMGTYDTSNTRLWALAREFTLADNFFQAAFGGSFLNHFWLICACTPQYEAAPASIRAQLDGDGHLVKDGAVTPDGYPVNTIFSFYPPYPPSATDLAKRLPPQTAPNIGDRLSGKNVSWAWYSGGYAAALEGRNQGNFQYHHQPFVYFASTGEGTKAKARHLKDEAPLFESVAAGRLESVVFYKPVGDENQHPGYADLASGDAKAARLVDAIRASALWKDTAIIITYDENGGFWDHVAPPKGDRWGPGTRIPALIISPYAKRGFVDHTVYDTTSILKLIETRFGLPPLGRRDAVANDLTAAFDFTSERR	not soluble
MSLVEDVKGVGFKTADKIASSLGIEADSPNRFRAALMHEVNTHSQSTGDTYIEAKNLLEMTIDLLEEARNVEVNPSAVAEEINGLIVDGKVQQEGTKIFENSLYFAEDGIRKSLTALTNRSGKDFADEKLLTVLAEVERDLEITYDDLQKQAIIGAMNQQFFILTGGPGTGKTTIINGFIETYARLHQLDLDPDHYNDDVFPILLAAPTGRASRRMNELTGLPAATIHRHLGLGQDEAEDALGNELSGALLIVDEFSMVDTWLANKLFQAIPGSMKVLLVGDADQLPSVGPGQIFADLLKIPEIPSVKLDKIFRQGDDSTITDLAHHIKDGQLPSDFTAKKPDRSYFEVSANFVPQMVEQIASAWQKRGNNPFELQILAPMYKGMAGINAMNVLLQNLFNPLNDRLEFALGDMKFREGDKVLHLVNDAEANVFNGDLGQIVELIAAKYTDSKQDELVMDFDGQELTYPRAEWYKITLAYAMSIHKSQGSEFSTVIVPMVSSYSRMLERNLLYTAITRAKQSLILLGEERAFAQAVAREGANRKTYLIERFMGENEGHHHHHH	soluble
MSLKPSDAEEARTEAFLVKLREFLDTVDGSVIERAAQIPDEYVKGLAELGCFGLKIPSEYGGLNMSQVAYNRVLMMVTTVHSSLGALLSAHQSIGVPEPLKLAGTAEQKRRFLPRCAAGAISAFLLTEPDVGSDPARMASTATPIDDGQAYELEGVKLWTTNGVVADLLVVMARVPRSEGHRGGISAFVVEADSPGITVERRNKFMGLRGIENGVTRLHRVRVPKDNLIGREGDGLKIALTTLNAGRLSLPAIATGVAKQALKIAREWSVERVQWGKPVGQHEAVASKISFIAATNYALDAVVELSSQMADEGRNDIRIEAALAKLWSSEMACLVGDELLQIRGGRGYETAESLAARGERAVPVEQMVRDLRINRIFEGSSEIMRLLIAREAVDAHLTAAGDLANPKADLRQKAAAAAGASGFYAKWLPKLVFGEGQLPTTYREFGALATHLRFVERSSRKLARNTFYGMARWQASLEKKQGFLGRIVDIGAELFAISAACVRAEAQRTADPVEGEQAYELAEAFCQQATLRVEALFDALWSNTDSIDVRLANDVLEGRYTWLEQGEGHHHHHH	not soluble
MDAVQDPAAGSLSRSRIVPPQVPAEYSLRPAIRNLLDRNPHSRVLMFSAPAGFGKTCALAALARERTVADQAVAWLSLAEEDDDPARFCRQLIEALGEAVPQLGDDAQTYLQNTMRVPVVAVIESLLGDLDRYARPLLLVLDDLHLVSNPDIFTGLNRLVQYAPPGLVLALGTRSQPALSLATWRAKGLLLEIGLEELRLGFEETREYLERSGLYLDEPCLKALYGQTEGWVVGVHLVSLWLRQQPQVQEMALLDGDKQAVSAYLLAAVFERLPGDLQEALLALGVASQLSGDLANALTGRQ	not soluble
MGSDKIHHHHHHDDDNDYYRYALPNALVTVKPVADNSFFMQLDDSTTLLPVNMKNSPYGEKEVRALVNFDPVNESSGEYDKAVHINWIDSILTKPIAGDLGDKNDEVYGTDPVDMINDWVTIAEDGYLTLRFRTMWGNRSQAHFVNLLMSKDAENPYEVEFRHNAFGDVYGEPADGLVAFNLDSLPDTEGKTVKLKLKWKSFNGEKTAEFDYCTRKSTPANSAAITAGRSVLRLK	not soluble
LIEGSERLSGLTDVDEVIKDLSRLLRKLVKTRWIAVYFFDRERRDFAPARSTGLPASFLPVFREMPLAPDKIPLLKSMLRKRQHLMLTDPGSSDLLTPKLRKLLRNLCVLAVPMVVRTQVIGAVFMARTRDNPPFSDAETAIIRDLVSHAALVVSHMQLFDE	soluble
MIVERVLYNIKDIDLEKLEVDFVDIEWYEVQKKILRKLSSNGIEVGIRNSNGEALKEGDVLWQEGNKVLVVRIPYCDCIVLKPQNMYEMGKTCYEMGNRHAPLFIDGDELMTPYDEPLMQALIKCGLSPYKKSCKLTTPLGGNLHGYSHSHSH	not soluble
TTQNELLNRIAELETKVAFQDNVIEELNQVLIHHQFVLDKLQTQVRHFANKFKNIQSSNVASQAEETPPPHY	not soluble
MGSDKIHHHHHHMSATEKRRYEVLRAIVADYIASQEPVGSKSLLERHKLNVSSATIRNDMSVLESDGFIVQEHASSGRVPTERGYRLFVDSIHDIKPLSLAERRAILGFLEGGVDLEDVLRRSVQLLSQLTHQAAVVQLPTLKTARVKHCEVVPLSPMRLLLVLITDTGRVDQRNVELEEPLAAEEVNVLRDLLNGALGEKTLTAASDALEELAQQAPTDIRDAMRRCCDVLVNTLVDQPSDRLILAGTSNLTRLSRETSASLPMVLEALEEQVVMLKLLSNVTDLDQVRVHIGGENEDIELRSATVITTGYGSQGSALGGLGVVGPTYMDYSGTISKVSAVAKYVGRVLAGE	not soluble
AIASKREDEGCARKRRTEAGQRSEDCMNPNSVVISAFKVFQQELDTRYDKYERLVKISRDVTIESKRTIFLLHRVASVPDVEEILNEAEVKLDGVRQKIGQIAEELRGEDLHQFHRAFTPGIQEYVEAVSFHHFIRHRSLISLEEINARLVFIRDNNKAVGEGTFSSPCVLTFQITPTDYLLGVADLTGELMRMCISSVGNGDMDTPFQLSGFLRQIHDGFSLIGNTGPYEVSKKLHALRQSLGKVEDACYTLRVRGSEIPKHMLADVFSSRAAHIDPDDAMA	soluble
LARSMACNSETLSELSFALTVGQKANDCDWFVGNSLIVRLLDMTGELNQKNVYTNRGASGIDGLVATAVGVQLANDKPLLALVGDTSLLYDLNSLALLKQATQPMVVVVMNNDGGGIFDLLPVNEKKKDDFYRMPHQLEFSHAAAMFGLSYHRPETLSCAMSMINDGLEKGIHLIEINTPAGQSGEELTRLFQTIQHAALF	not soluble
MSLNGSSIIEFEDMTWSQQVEDSKKPVVVMFYSPACPYCKAMEPYFEEYAKEYGSSAVFGRINIATNPWTAEKYGVQGTPTFKFFCHGRPVWEQVGQIYPSILKNAVRDMLQHGEECIRKSTPVGQDITGYVEGHHHHHH	soluble
MEAWKKKKGLFKGARYQCTLEPIEREVLGNLAANISEVLISRAQSAPKDELAELTGMGGGHTEAPEDPGLARLLPDFEMQGDEEFDGDNSLLRSLHENDITRAKLANLQTIGQALGPDGSVFVTVTEEEAQAWVAGLNDIRLYLASSEVQDTEDRDALVEWLAFAQESLLTAMMGSLD	not soluble
MGSDKIHHHHHHMETIETVQRFLEHMAWYATPVPASAISFLAAGEYNENWRIRHEGRDEVLRVNHGSQLRFADQIGYEYAVLRAVHPSGVTPRALRVKSRPRHLSGGALLMEYLPGRPLDYRTDLEAAAHTFAAVHSVVVPRGCPLLRQPDPVADIAADGLRLIHRFPDHPRTDVRDALLRYHERVVRLGEDTRALFEGERQVIANTEVNSGNFLVHDGVARLVDWEKAVVTPRYQDLGHFLAPTTTLWKTDTVLDEADRRRFLAAYRDALTRLAGRETVADCHFDTTDTAEGVTHEAAFHTTAPDAPGGQPHGDMAPDVPDLDALAVRTDVLVRAVLLRGLAWCYMAWQEYATDRRPLAHPDTLRTIERYLAEVSWFLR	not soluble
MGSDKIHHHHHHMAISVTAEEKQILAGVTIPPRPQALLDISKEAKQEYPDVSKIAKAISEDVGISAAVLQVVNSVAFRRNNQISSIHQAVMTLGIKRIFPLVKAVAIKGALPENPMLNEFWQSSSMVASACTLYANLLGKANLSDNAYMLGLFHNAGVPVMLQAFPAYQALLMRGITEGWGEVASLEVQEFKTSHTTLGALLAQQWELPKPMVEVIYYLHDIDGIFTSGELSEVGLYLLAILKLARSSVDGVIRGECNTDEWLKIQDPLLAFLNLDEVQLDEFREEVAEKLRSEG	not soluble
MKKYVCTVCGYEYDPAEGDPDNGVKPGTSFDDLPADWVCPVCGAPKSEFEAA	soluble
MLSFAPYRFSQVLEHQCTRNGSVLIRHTEEFTSKTCSRCGHIHYSLGGQKIFKCSNCGNHLPRDWNGALGNFLKALWDTTLEHHHHHH	not soluble
MGSDKIHHHHHHMATALYTANDFILISLPQNAQPVTAPGSKTDSWFNETLIGGRAFVSDFKIPEFKIGSLDTLIVESEELSKVDNQIGASIGKIIEILQGLNETSTNAYRTLPINNMPVPEYLENFQWQTRKFKLDKSIKDLITLISNESSQLDADVRATYANYNSAKTNLAAAERKKTGDLSVRSLHDIVKPEDFVLNSEHLTTVLVAVPKSLKSDFEKSYETLSKNVVPASASVIAEDAEYVLFNVHLFKKNVQEFTTAAREKKFIPREFNYSEELIDQLKKEHDSAASLEQSLRVQLVRLAKTAYVDVFINWFHIKALRVYVESVLRYGLPPHFNIKIIAVPPKNLSKCKSELIDAFGFLGGNAFMKDKKGKINKQDTSLHQYASLVDTEYEPFVMYIINL	not soluble
MAFYNSIPLIGKHLKSESRAKKYTSEEFKRLEREYRDHIGLPENSSFSSDAFDKLVSSRVDDFRAFPKTNLPGGLLFHDKLKEANTTEGDNIRDVLSKTVLAPTEKFKTAQKNFTESTSTFKELTKLIPSKFRAQDLVGTMKELTDDARKAIIEQQAHEIQMLKEKLDPQKEGQAGNYVSDFKKALGLKDNDEVKKVTEGLIKELEETHKKQLGEFDKSTSDSLNQLHKASASESSEYLFLANLYENNKEMRQTLEKLYAKERQRKGLPPESTTVQVGISENKIDLNGIKLKDIPVIKSITGREIHQQPDGSFAIQMPMINPFYYQDPRQNVKTDMMLIAQAIKASGYDSIEMNCNFPNSEKVAMERGRQAFAACIEAGFPVDKITINVNGKPMKADELFKEHPKTYQDIMSRASKISKDYEDIKAPKTSTAPVNTVVVKQEIAALRTKQQQEERAQTQPVDEQRHGVTPNNLEHHHHHH	not soluble
